The target of test [1] is T1, PE-labeled AFP158/HLA-A*02:01 tetramer (human, biotinylated via the BSP peptide linked to the C-terminal end of the HLA-A*02:01 extracellular domain).
T1 construct: monomers single chain; also called AFP158 tetramer; AFP158/HLA-A*02:01 tetramers; not shown: BSP peptide (BirA biotinylation site) at the C-terminus
Briefly: flow cytometry; Jurkat cells transduced with the construct, stained with PE-labelled AFP158/HLA-A*02:01 tetramer. For orientation: A flow cytometer gives signals particle by particle.

The target in test [2] is T1, PE-labeled AFP158/HLA-A*02:01 tetramer. The test is described as follows: flow cytometry; J.RT3-T3.5 cells transduced with the construct, stained with PE-labelled AFP158/HLA-A*02:01 tetramer.
Test [3] has the same target. Briefly: flow cytometry, AFP158 tetramer binding on transduced T cells. As to the method:
Primary human T-cells were used for transduction after one-day stimulation with CD3/CD28 beads (Dynabeads®, Invitrogen) in the presence of interleukin-2 (IL-2) at 100 U/ml. Concentrated lentiviruses were applied to T-cells in Retronectin-(Takara) coated 6-well plates for 96 hours. Transduction efficiencies of the anti-AFP and anti-CD19 chimeric constructs were assessed by flow cytometry, using biotinylated AFP158/HLA-A*02:01 tetramer (“AFP158 tetramer”) with PE-conjugated streptavidin or anti-myc antibody respectively. Repeat flow cytometry analyses were done on day 5 and every 3-4 days thereafter.
Specific lysis was measured after 16 hr incubation using the Cytox 96 Non-radioactive Cytotoxicity Assay (Promega).

Changes are numbered by the printed parent chain.

B1: anti-AFP158/HLA-A*02:01-abTCR-6 (other)
chain 1: EVQLVQSGAEVKKPGESLTISCKASGYSFPNYWITWVRQMSGGGLEWMGRIDPGDSYTTYNPSFQGHVTISIDKSTNTAYLHWNSLKASDTAMYYCARYYVSLVDIWGQGTLVTVSSASTKGPSVFPLAPSSKSTSGGTAALGCLVKDYFPEPVTVSWNSGALTSGVHTFPAVLQSSGLYSLSSVVTVPSSSLGTQTYICNVNHKPSNTKVDKRVEPKSCDHVKPKETENTKQPSKSCHKPKAIVHTEKVNMMSLTVLGLRMLFAKTVAVNFLLTAKLFFLYPYDVPDYA
chain 2: QSVLTQPASVSGSPGQSITISCTGTSSDVGGYNYVSWYQQHPGKAPKLMIYDVNNRPSEVSNRFSGSKSGNTASLTISGLQAEDEADYYCSSYTTGSRAVFGGGTKLTVLGQPKANPTVTLFPPSSEELQANKATLVCLISDFYPGAVTVAWKADGSPVKAGVETTKPSKQSNNKYAASSYLSLTPEQWKSHRSYSCQVTHEGSTVEKTVAPTECSMDPKDNCSKDANDTLLLQLTNTSAYYMYLLLLLKSVVYFAIITCCLLRRTAFCCNGEKSDYKDHDGDYKDHDIDYKDDDDK
As to B1, in test [1], the “% of cells in gate high” value worked out at 6.17%, the “% of cells in gate low” value worked out at 4.36% and the “% of cells in gate negative” value is 89.5%. In test [2], the “% of cells in gate high” value was 8%, the “% of cells in gate low” value was found to be 5.35% and the “% of cells in gate negative” value was found to be 87.2%.

B2: anti-AFP158/HLA-A*02:01-abTCR-4 (other)
chain 1: QSVLTQPASVSGSPGQSITISCTGTSSDVGGYNYVSWYQQHPGKAPKLMIYDVNNRPSEVSNRFSGSKSGNTASLTISGLQAEDEADYYCSSYTTGSRAVFGGGTKLTVLGQPKANPTVTLFPPSSEELQANKATLVCLISDFYPGAVTVAWKADGSPVKAGVETTKPSKQSNNKYAASSYLSLTPEQWKSHRSYSCQVTHEGSTVEKTVAPTECSESSCDVKLVEKSFETDTNLNFQNLSVIGFRILLLKVAGFNLLMTLRLWSSDYKDHDGDYKDHDIDYKDDDDK
chain 2: EVQLVQSGAEVKKPGESLTISCKASGYSFPNYWITWVRQMSGGGLEWMGRIDPGDSYTTYNPSFQGHVTISIDKSTNTAYLHWNSLKASDTAMYYCARYYVSLVDIWGQGTLVTVSSASTKGPSVFPLAPSSKSTSGGTAALGCLVKDYFPEPVTVSWNSGALTSGVHTFPAVLQSSGLYSLSSVVTVPSSSLGTQTYICNVNHKPSNTKVDKRVEPKSCADCGFTSVSYQQGVLSATILYEILLGKATLYAVLVSALVLMAMVKRKDFYPYDVPDYA
As to B2, in test [1], the “% of cells in gate high” value is 0.574%, the “% of cells in gate low” value came to 12.3% and the “% of cells in gate negative” value was found to be 87.1%. In addition, in test [2], the “% of cells in gate high” value amounted to 0.928%, the “% of cells in gate low” value was determined as 19.1% and the “% of cells in gate negative” value was 80.1%.

B3: anti-AFP158/HLA-A*02:01-abTCR-3 (other)
chain 1: EVQLVQSGAEVKKPGESLTISCKASGYSFPNYWITWVRQMSGGGLEWMGRIDPGDSYTTYNPSFQGHVTISIDKSTNTAYLHWNSLKASDTAMYYCARYYVSLVDIWGQGTLVTVSSASTKGPSVFPLAPSSKSTSGGTAALGCLVKDYFPEPVTVSWNSGALTSGVHTFPAVLQSSGLYSLSSVVTVPSSSLGTQTYICNVNHKPSNTKVDKRVEPKSCESSCDVKLVEKSFETDTNLNFQNLSVIGFRILLLKVAGFNLLMTLRLWSSDYKDHDGDYKDHDIDYKDDDDK
chain 2: QSVLTQPASVSGSPGQSITISCTGTSSDVGGYNYVSWYQQHPGKAPKLMIYDVNNRPSEVSNRFSGSKSGNTASLTISGLQAEDEADYYCSSYTTGSRAVFGGGTKLTVLGQPKANPTVTLFPPSSEELQANKATLVCLISDFYPGAVTVAWKADGSPVKAGVETTKPSKQSNNKYAASSYLSLTPEQWKSHRSYSCQVTHEGSTVEKTVAPTECSADCGFTSVSYQQGVLSATILYEILLGKATLYAVLVSALVLMAMVKRKDFYPYDVPDYA
Turning to B3, in test [1], the “% of cells in gate high” value turned out to be 3.7%, the “% of cells in gate low” value came to 56.2% and the “% of cells in gate negative” value came to 40.2%. Also, in test [2], the “% of cells in gate high” value was 5.68% and the “% of cells in gate negative” value was determined as 19.5%.

B4: anti-AFP158/HLA-A*02:01-abTCR-5 (other)
chain 1: QSVLTQPASVSGSPGQSITISCTGTSSDVGGYNYVSWYQQHPGKAPKLMIYDVNNRPSEVSNRFSGSKSGNTASLTISGLQAEDEADYYCSSYTTGSRAVFGGGTKLTVLGQPKANPTVTLFPPSSEELQANKATLVCLISDFYPGAVTVAWKADGSPVKAGVETTKPSKQSNNKYAASSYLSLTPEQWKSHRSYSCQVTHEGSTVEKTVAPTECSDHVKPKETENTKQPSKSCHKPKAIVHTEKVNMMSLTVLGLRMLFAKTVAVNFLLTAKLFFLYPYDVPDYA
chain 2: EVQLVQSGAEVKKPGESLTISCKASGYSFPNYWITWVRQMSGGGLEWMGRIDPGDSYTTYNPSFQGHVTISIDKSTNTAYLHWNSLKASDTAMYYCARYYVSLVDIWGQGTLVTVSSASTKGPSVFPLAPSSKSTSGGTAALGCLVKDYFPEPVTVSWNSGALTSGVHTFPAVLQSSGLYSLSSVVTVPSSSLGTQTYICNVNHKPSNTKVDKRVEPKSCMDPKDNCSKDANDTLLLQLTNTSAYYMYLLLLLKSVVYFAIITCCLLRRTAFCCNGEKSDYKDHDGDYKDHDIDYKDDDDK
As for B4, in test [1], the “% of cells in gate high” value was determined as 7.64%, the “% of cells in gate low” value worked out at 3.7% and the “% of cells in gate negative” value turned out to be 88.7%. In test [2], the “% of cells in gate high” value stood at 9.41%, the “% of cells in gate low” value is 4.98% and the “% of cells in gate negative” value came out at 86.1%.

B5: anti-AFP158/HLA-A*02:01-abTCR-6MD (other)
chain 1: EVQLVQSGAEVKKPGESLTISCKASGYSFPNYWITWVRQMSGGGLEWMGRIDPGDSYTTYNPSFQGHVTISIDKSTNTAYLHWNSLKASDTAMYYCARYYVSLVDIWGQGTLVTVSSASTKGPSVFPLAPSSKSTSGGTAALGCLVKDYFPEPVTVSWNSGALTSGVHTFPAVLQSSGLYSLSSVVTVPSSSLGTQTYICNVNHKPSNTKVDKRVEPKSCEVKTDSTDHVKPKETENTKQPSKSCHKPKAIVHTEKVNMMSLTVLGLRMLFAKTVAVNFLLTAKLFFLYPYDVPDYA
chain 2: QSVLTQPASVSGSPGQSITISCTGTSSDVGGYNYVSWYQQHPGKAPKLMIYDVNNRPSEVSNRFSGSKSGNTASLTISGLQAEDEADYYCSSYTTGSRAVFGGGTKLTVLGQPKANPTVTLFPPSSEELQANKATLVCLISDFYPGAVTVAWKADGSPVKAGVETTKPSKQSNNKYAASSYLSLTPEQWKSHRSYSCQVTHEGSTVEKTVAPTECSPIKTDVITMDPKDNCSKDANDTLLLQLTNTSAYYMYLLLLLKSVVYFAIITCCLLRRTAFCCNGEKSDYKDHDGDYKDHDIDYKDDDDK
notes: also called anti-AFP158 abTCR
B5: in test [1], the “% of cells in gate high” value amounted to 19%, the “% of cells in gate low” value worked out at 9.54% and the “% of cells in gate negative” value was 71.5%. In addition, in test [2], the “% of cells in gate high” value was found to be 24.2%, the “% of cells in gate low” value stood at 13.8% and the “% of cells in gate negative” value was 63.4%.

B6: anti-AFP158/HLA-A*02:01 abTCR with IgG1 CH1 domain (other)
heavy: EVQLVQSGAEVKKPGESLTISCKASGYSFPNYWITWVRQMSGGGLEWMGRIDPGDSYTTYNPSFQGHVTISIDKSTNTAYLHWNSLKASDTAMYYCARYYVSLVDIWGQGTLVTVSSASTKGPSVFPLAPSSKSTSGGTAALGCLVKDYFPEPVTVSWNSGALTSGVHTFPAVLQSSGLYSLSSVVTVPSSSLGTQTYICNVNHKPSNTKVDKRVEPKSCEVKTDSTDHVKPKETENTKQPSKSCHKPKAIVHTEKVNMMSLTVLGLRMLFAKTVAVNFLLTAKLFFL
light: QSVLTQPASVSGSPGQSITISCTGTSSDVGGYNYVSWYQQHPGKAPKLMIYDVNNRPSEVSNRFSGSKSGNTASLTISGLQAEDEADYYCSSYTTGSRAVFGGGTKLTVLGQPKANPTVTLFPPSSEELQANKATLVCLISDFYPGAVTVAWKADGSPVKAGVETTKPSKQSNNKYAASSYLSLTPEQWKSHRSYSCQVTHEGSTVEKTVAPTECSPIKTDVITMDPKDNCSKDANDTLLLQLTNTSAYYMYLLLLLKSVVYFAIITCCLLRRTAFCCNGEKS
For the molecule B6, in test [3], the “AFP 158 tetramer+ (percent)” value was found to be 64.5 percent.

B7: anti-AFP158/HLA-A*02:01 abTCR with IgG4 CH1 domain (other)
heavy: B6 heavy with S131C, K133R, G137E, G138S, Q196K, I199T, N203D, P217S, S219Y, C220G
light: B6 light
Regarding B7, the “AFP 158 tetramer+ (percent)” value in test [3] was found to be 22.2 percent.
